Among the data in PMC5691136, “The role of CXCR3/LRP1 cross-talk in the invasion of primary brain tumors” (Nature Communications, 2017) are Kd values, retold here.

In general, Kd refers to a measure of binding affinity in units of concentration.

The target in this assay is CXCR3-A (human CXC chemokine receptor CXCR3, isoform A), stably expressed in U87 cells (human) (UniProt P49682). As to the kind of experiment: plasmon waveguide resonance (PWR); membrane fragments of U87-CXCR3-A or HEK-CXCR3-A cells captured on the polylysine-treated silica sensor; ligand added incrementally in PBS, 22 °C; shifts of the resonance minimum fitted with a hyperbolic single-site function.
Chain of CXCR3-A (human CXC chemokine receptor CXCR3, isoform A), stably expressed in U87 cells (human) (P49682 whole entry, the tested form may be a part, canonical isoform): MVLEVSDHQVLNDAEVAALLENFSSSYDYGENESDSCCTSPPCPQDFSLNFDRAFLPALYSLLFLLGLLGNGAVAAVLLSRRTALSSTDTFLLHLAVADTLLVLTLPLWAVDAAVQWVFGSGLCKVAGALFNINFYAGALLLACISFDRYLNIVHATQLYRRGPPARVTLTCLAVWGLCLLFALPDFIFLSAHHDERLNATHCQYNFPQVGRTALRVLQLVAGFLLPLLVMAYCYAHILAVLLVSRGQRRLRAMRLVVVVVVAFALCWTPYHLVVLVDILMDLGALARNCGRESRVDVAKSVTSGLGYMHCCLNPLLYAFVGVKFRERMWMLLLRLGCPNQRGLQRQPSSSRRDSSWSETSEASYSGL

PS372424 (CXCR3 agonist) (peptide): the Kd was 36 nM.
